From PMC9241661

Molecular target: endogenous PTEN-induced kinase 1 (PINK1) (human (endogenous in Huh7)) (UniProt Q9BXM7)
Assay: proximity ligation

UniProt Q9BXM7, sequence (Q9BXM7 78-581): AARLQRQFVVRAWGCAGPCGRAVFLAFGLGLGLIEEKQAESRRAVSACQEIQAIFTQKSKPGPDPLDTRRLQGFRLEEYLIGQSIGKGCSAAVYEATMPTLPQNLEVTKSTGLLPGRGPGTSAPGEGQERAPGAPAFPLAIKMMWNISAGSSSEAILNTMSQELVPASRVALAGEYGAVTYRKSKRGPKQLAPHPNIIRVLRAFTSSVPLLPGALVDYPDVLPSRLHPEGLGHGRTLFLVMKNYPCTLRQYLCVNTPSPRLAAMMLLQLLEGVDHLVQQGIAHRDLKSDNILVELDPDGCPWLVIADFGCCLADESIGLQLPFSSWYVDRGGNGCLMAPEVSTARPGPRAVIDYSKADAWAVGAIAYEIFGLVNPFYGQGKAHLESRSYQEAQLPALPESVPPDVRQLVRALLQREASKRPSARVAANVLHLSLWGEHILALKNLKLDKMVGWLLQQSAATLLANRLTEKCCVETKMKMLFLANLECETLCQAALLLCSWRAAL

“JEV-NS4A made in JEV-infected Huh7 cells (from UniProt P27395 2124-2249) (natural protein)” gave a fluorescent dots per cell (PLA) (fluorescent dots per cell) of 20.
